Measured values: patent US20240075139A1
Like-named read-outs stand apart in the source and are kept apart here.

B1: 4T0578 (antibody, V domains shown)
VH: EVQLVESGGALVQPGGSLRLSCAASGFTFSRYDIHWVRQASGKGLEWVSAIGKAGDAYYAGSVRGRFTISRENAKNSLYLQMNSLRAGDTAVYYCARASFGDLYFDLWGRGTLVTVSS
VL: DIVMTQSPDSLAVSLGERATINCKSSQSLLHSSNNKNSVAWYQQKPGQPPKLLIYWASTREFGVPDRFSGSGSGTDFALTISSLQAEDVAVYVCQQYYNSPLTFGPGTKVDIK
B2: 4T0306 (antibody, V domains shown)
VH: QVQLQQSGPGLVRPSQTLSLICAISGDSVSDNNAAWNWIRQSPSRGLEWLGRTYFRSRWYNDYPESLKGRVIINPDTAENQVSLQLSSVTPGDTAVYYCVREYYDLWNGFYPGGAMDVWGQGTTVTVSS
VL: DIQLTQSPSSLSASVGDRVTITCRASQDISDFLNWFQQKPGKAPKLLIYDVSKLARGVPSRFSGSASGTDFTFTISSLQPEDIATYYCQQYDDLPRTFGQGTKLEIK
B3: 1T0451 (antibody, V domains shown)
VH: QVQLVQSGAEVKKPGASVKISCEASGYNFNGYVIDWVRQAPGQRLEWMGWINPGNGNTKFSPKFQGRVTFTRAASASTAYMELSSLTSEDTALYFCARGRGTSYYYAFDVWGQGTTVTVSS
VL: DIQMTQFPSSLSASVGDRVTISCRASQNISNYLNWYQQKPGKAPKFLIYAASNLQSGVPSRFSGSGSGTGFTLTISNLQPEDFAIYYCQQTYRSPLYTFGQGTKLEIK
B4: 1T0655 (antibody, V domains shown)
VH: QVQLVQSGAEVKKPGASVKVSCKASGYTFTSYYMHWVRQVPGQGLEWMGIIKAGNGGTNYAQNFQGRITVTRDTSTSTVYMELSSLRSEDTAVYYCARDRQWLPLNGYSYFNYGMDVWGQGTTVTVSS
VL: DIQMTQSPSSLSASVGDKITITCRASQSISTYLNWYQQRPGRAPKLLIFGASSLQSGVPSRFSGSGSGTVFTLSISSLQPDDFGSFYCQQSFSSPRTFGQGTKVEIK
B5: 3T0123 (antibody, V domains shown)
VH: QVQLVQSGSEVKKPGASVKVSCQASGYRFANYGISWVRQAPGQGLEWMGWISPLKRDPDYAQNFQGRVTMSRDTSTNTAYMELRGLTSGDTAVYFCARGLGDSYSNAWFVYVFDYWGQGSPVTVSS
VL: EIVMTQSPATLSVSPGERVTLSCRTSQRIHTNLAWYQQKSGQAPRLVMYDAFTRAPGVPARFSGGGSETEFTLTISSLQSEDFALYYCQQYSQRPTFGLGTKLEIK
B6: 3T0468 (antibody, V domains shown)
VH: EVQLVESGGHLIQPGGSLRLSCAASGFTFRIYDMHWVRQGRRKGLEWVSAIGAAGDTYYSDSVKGRFTISRENAKSSLYLQMNSLSVGDTAVYYCARAAFGAVYYDNWGQGILVTVSS
VL: EIVLTQSPGTLSLSPGERATLSCRASENVDSRFLVWYQQKVGQAPRLLIYGASRRATGIPDRFSGSGSGTDFALTISRLEPEDLAVYYCQQYGRSPITFGQGTRLEIK
B7: 3T0265 (antibody, V domains shown)
VH: EVQLVESGGNLAKPGGSLRLSCAASGFTFSDAWMTWVRQAPGKGLEWVGRIKSNADGGATEYAAPVRGRFTISRDDSRSSLFLQMNSLKTEDTAVYYCLTPPPRRYWGQGILVTVSS
VL: QSVLTQPPSVSGAPGQRVAISCTGSYSNIGAGYDVHWYQQFPGAAPKLLIYAYTNRPAGVPDRFSGSKSGSSASLVISGLQADDEADYYCQSYDARLRDGEVFGGGTKLTV
B8: 5T0337 (antibody, V domains shown)
VH: EVQLVESGGGLVKPGGSLRISCAASGFTFNNAWMNWVRQSPGKGLEWVGRIKSKSDAGTTDYAAPVKGRFIISRDDSKKTLFLQMNSLKIEDTAIYFCMTGFEHTYSYFDLWGRGTQVTVSS
VL: QSVLTQPPSVSGAPGQRVIISCIGGSSNIGAGYDVKWYQQLLPGTAPRLLIYGNTNRPSGVPDRFSGSKSGTSASLAITGLQAEDEADYYCQSYDSRLRDAWVFGGGTKLTVL
B9: 1T0473 (antibody, V domains shown)
VH: QVQLVQSGAEVKKPGASVKVSCKASGYTFPSYEINWVRQATGQGLEWMGWMDPKSGKTGYAQKFQGRVTMTRNPSISTAYLELSSLRSEDSAVYYCARGNQWFGELLSSYYGLDVWGQGTTVTVSS
VL: EIVLTQSPGTLSLSPGEGATLSCRASQSVSSSFLTWYHQKPGQAPRLLIYGASNRATGVPDRFSGGGSGTDFTLTISRLEPEDFGVYYCQQYGSSLITFGPGTKVDIK
B10: 4m0368 (antibody, V domains shown)
VH: QVQLQESGPGLVKPSGTLSLTCAVSGGSISGTNWWTWVRQPPGRGLEWIGEIYYRGSPNYNPSLKSRVTISVDQSKSQFSLKLTSVTAADTAVYYCLRLSHYGGAWGQGTLVTVSS
VL: DIQLTQSPSSLSASVGDRVTITCRASQSISTYLNWYQQKPGKAPKFLIFSASNLQSGVPSRFSGGGSGTDFTLTISSLQPEDFATYYCQQTYNTPRTFGQGTKVEIK
B11: 4T0570 (antibody, V domains shown)
VH: QVQLVQSGAEVKKPGASIKVSCKASGYTFVSKYIHWVRQAPGQGLEWMGIINPSGGRTDYAQKFQGRVTISRDTSTSTVYMELSSLRSEDTAFYYCARALPFRVTGARDVFDIWGQGTMVTVSS
VL: DIQMTQSPSSLSASVGDRVTITCRASQGISTNLAWFQQRPGKAPKSLVYAASTLQNGVPSKFSGSGSGTDFTLTISSLQPEDFATYYCQQYYTYPLTFGGGTKVEIK
B12: 5T0223 (antibody, V domains shown)
VH: EVQLVESGGGLVKPGGSLRLSCEASGFTFRNTWMNWVRQAPGKGLEWVGRIKSNTDGGTADYAAPVKGRFTISRDDSKSTLFLEMISLRTEDTGFYYCTKGGPGAHSWGLGTLVTVSS
VL: QSVLTQPPSVSGAPGQRVTISCTGSSSNIGAGYDVQWYQQLPGTAPKVLIYHNTNRPSGVPDRFSGSRSGTSASLVITGLQAEDEADYYCQTYDSRLSDHWVFGGGTKLTVL
B13: 5T0180 (antibody, V domains shown)
VH: EVQLVESGGGLVKPGGSLRLSCAASGFSFGNAWMNWVRQAPGKGLEWVGRIKSKSDGGTTDYAAPVKDRFIISRDDSKKTLYLQMNSLRREDTAVYYCVRGPFYCDTCGPNDYWGQGTLVTVSS
VL: QSVLTQPPSVSGAPGQRVTISCTGSSSNIGAGYDVQWYQQLPGTAPKVLIYGNNNRPSGVPDRFSGSKSGSSASLAITGLQAEDEADYYCQTYDSRLRDQWVFGGGTKLTVL
B14: 1T0139 (antibody, V domains shown)
VH: QVQLQESGPGLVKPSETLSLTCIVSGGSLSSYYWSWVRQPAGKGLQWIGHIYTTGSTNYNPSLKSRVTMSIDTSKNQFSLRLSSVTAADTAVYYCARESYRYNAYDIHPFDYWGQGTLVTVSS
VL: SYELTQSSSVSVSPGQTASITCSGDKLGDNYVCWYQQKPGQSPTLVIYQDNRRPSGIPERFSGSNSGNTATLTIRGTQALDEADYYCQAWASNTVVFGGGTKLTVL
B15: 4T0429 (antibody, V domains shown)
VH: QVQLQQWGAGLLKPSETLSLTCAVYRGSFITYYWSWVRQPPGRGLEWIGEIYKDGSASYNPSLKNRVTISLDMSKNHFSLNLDSVTAADTAVYYCARHGHTGMDVWGQGTTVTVSS
VL: QSVLTQPPSTSGTPGQRVTISCSGSSSNIGLNYVYWYQQLPGTAPKLLIYRNNQRPSGVPDRFSGSKSGTSASLAISGLRSEDEADYYCAAWDDSLSAYIFGTGTKVTVL
B16: 4T0726 (antibody, V domains shown)
VH: QVQLVQSGVEVKEPGASVRVSCKASGYTFTHYGITWVRQAPGQGLEWMGWISGYNGNTDYAQKFQGRITMTTDTSTSTAYMELGRLTSDDTAVYYCARTITMILLGWFDPWGQGTLVTVSS
VL: EIVLTQSPGTLSLSPGERATLSCRASQSVSSNYLAWYQQKPGQAPRLLISGASNRATGLPDGFSGSGSGTDFTLTISRLEPEDFAVFFCQQYGTSPLTFGPGTKVDIK
B17: 5T0202 (antibody, V domains shown)
VH: EVQLVESGGGLVKPGGSLRLSCGASGFSFNDAWMNWVRQAPGKGLEWVGRIKSKADGGGSDTAAPVKGRFIISRDDSKNTLFLQMERLKSEDTGVYYCTTSLNIWGTYRDCWGQGTLVTVSS
VL: QSVLTQPPSVSGAPGQRVTISCTGSYSNIGAGYDVRWYQQLPETAPKLLIYGNNNRPSGVPDRFSGSKSGTSASLAITGLQAEDEADYYCQSYDSRLRDSWVFGGGTRLTVL
B18: 1T0201 (antibody, V domains shown)
VH: EVQLVESGGGLVKPGGSLRLSCAAAGFSFSKAWMNWVRQAPGKGLEWVGRIKSKTDGGTTDYTAPVKGRFIISRDDSKNMLYLQMNSLKAEDTAVYWCTTRVDMEWGKYGTDVWGQGTTVTVSS
VL: QSVLTQPPSVSGAPGQRVTISCTGSSSNIGAGYDVHWYQKLPGTAPKLLIYDKNIRPSGVPDRFSGSKSGVSASLAITGLQAEDEADYYCQSYDSRLSDSWVFGGGTKLTVL
B19: 5T0376 (antibody, V domains shown)
VH: QVQLQESGPGLVKPSETLSLTCSVSGASISTLYWSWIRQPPGKGLEWIGYMHSSGTTNYNPSLESRVTMSIDTSRNQFSLKLTSVTAADTAVYYCARGLLGPGDSWGQGTLVTVSS
VL: QSALTQPASVSGSPGQSITISCTGTSSDVGGYNYVSWYQQYPGKAPKLMIYEVTSRPSGVSNRFSGSKSGNTASLTISGLQAEDEGDYYCSSYKTGSTPVVFGGGTKLTVL
B20: 3T0258 (antibody, V domains shown)
VH: QVQLVQSGAEVKQPGASVKVTCKASGSTRSSYDLIWVRQAPGQGLELMGRVNTHNGNTDYAQKFQGRVTMTTDTSTTTAHMELRNLRSDDTAVYYCAWRRSSWFAFDVWGQGTAVTVSS
VL: EIVLTQSPGTLSLSPGERGTLSCRASQSISGNYLGWYQQSPGQAPRLLIYGASNRATGVPDRFSGSGSGTDFTLTISRLEPEDFAVYYCQQYVSSPYTFGQGTKLEIK

Key:
[1] = target: EBOV Mayinga (GenBank: NC_002549) (Zaire Ebolavirus (EBOV Mayinga)) (UniProt Q05320); assay: cell-based or functional assay
[2] = target: EBOV Mayinga (GenBank: NC_002549) (Zaire Ebolavirus (EBOV Mayinga)) (UniProt Q05320); assay: cell-based or functional assay; remark: listed apart in the source

Sequence of UniProt Q05320 (Q05320 33-676 limits assumed): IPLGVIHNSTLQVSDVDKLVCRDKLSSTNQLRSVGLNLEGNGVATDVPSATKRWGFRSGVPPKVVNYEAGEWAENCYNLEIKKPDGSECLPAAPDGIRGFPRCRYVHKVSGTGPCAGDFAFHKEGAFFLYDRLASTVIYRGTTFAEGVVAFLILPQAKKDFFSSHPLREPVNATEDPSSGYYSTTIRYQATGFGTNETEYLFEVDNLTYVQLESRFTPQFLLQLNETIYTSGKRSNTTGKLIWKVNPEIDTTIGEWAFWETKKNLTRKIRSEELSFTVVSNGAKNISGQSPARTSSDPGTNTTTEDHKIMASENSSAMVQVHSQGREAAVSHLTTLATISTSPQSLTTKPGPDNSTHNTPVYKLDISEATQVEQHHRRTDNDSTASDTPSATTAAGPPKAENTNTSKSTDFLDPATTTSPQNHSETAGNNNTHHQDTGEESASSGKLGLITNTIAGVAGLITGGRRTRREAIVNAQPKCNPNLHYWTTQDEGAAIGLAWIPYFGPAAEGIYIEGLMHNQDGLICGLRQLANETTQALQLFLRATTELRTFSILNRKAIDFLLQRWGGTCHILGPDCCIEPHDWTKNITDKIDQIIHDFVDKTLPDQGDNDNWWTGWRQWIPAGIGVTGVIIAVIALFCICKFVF

Molecule | neutralization concentration (GMC, CPE reduction on Vero C1008 cells) [1] | neutralization concentration (GMC, CPE reduction on Vero C1008 cells) [2]
mAb114 (antibody) | 0.744 µg/mL | –
B1 | – | 0.45 µg/mL
B2 | – | 100 µg/mL
B3 | – | 2.5 µg/mL
B4 | – | 0.08 µg/mL
B5 | – | 0.52 µg/mL
B6 | – | 2.1 µg/mL
B7 | – | 0.44 µg/mL
B8 | – | 2.21 µg/mL
B9 | – | 2.63 µg/mL
B10 | – | 0.13 µg/mL
B11 | – | 0.09 µg/mL
B12 | – | 1.86 µg/mL
B13 | – | 12.5 µg/mL
B14 | – | 7.44 µg/mL
B15 | – | 35 µg/mL
B16 | – | 2.56 µg/mL
B17 | – | 2.5 µg/mL
B18 | – | 2.63 µg/mL
B19 | – | 12.5 µg/mL
B20 | – | 0.06 µg/mL
